Source: paper PMC6344880

Target: 40S subunits of uS9/S16-R143G, uS9/S16-R143E and uS9/S16-R144 strains (S. cerevisiae)
Test: co-sedimentation + cross-linking; formaldehyde cross-linking, whole cell extracts resolved on 10–30% sucrose gradients, Western blot of the 43/48S PIC (40S) fractions for eIF1, eIF2α and uS7, signals normalised to uS7; also in strains carrying the TIF5-G31R allele (Figure 6A), which reversed the accumulation of eIF2

fold increase of association against the wild-type strain: 2.5 to 3 fold
Substance: eukaryotic initiation factor 1 (eIF1) (from UniProt P32911 1-108) (natural protein)
